Results as given in patent US20050158309A1.
[ ]: non-standard residue; d: D form. pGlu = O=C1CC[C@@H](C(=O)O)N1

Key:
[1] = target: aCII6 polyclonal antibody against GnRH-II; test: RIA cross-reactivity with antibody aCII6 (relative to GnRH-II)
[2] = target: KLII-2 antiserum against GnRH-II; test: RIA cross-reactivity with antiserum KLII-2 (relative to GnRH-II)

B1: Salmon GnRH (sGnRH) (peptide)
peptide: [pGlu]HWSYGWLPG-NH2
SMILES: CC(C)C[C@H](NC(=O)[C@H](Cc1c[nH]c2ccccc12)NC(=O)CNC(=O)[C@H](Cc1ccc(O)cc1)NC(=O)[C@H](CO)NC(=O)[C@H](Cc1c[nH]c2ccccc12)NC(=O)[C@H](Cc1c[nH]cn1)NC(=O)[C@@H]1CCC(=O)N1)C(=O)N1CCC[C@H]1C(=O)NCC(N)=O
B1 showed a cross-reactivity [1] of 0.013% and a cross-reactivity [2] of 0.003%.
